Residue numbers refer to the chain shown, from its start.

Sequences and labels used below:
B1: Ab12: monoclonal antibody; VH SEQ ID NO: 237, VL SEQ ID NO: 241 (antibody, V domains shown)
VH: QVQLVESGGGVVQPGRSLRLSCAASGFTFSDYAMVWVRQAPGKGLEWVSAISGSGFTTYYADSVKGRFTISRDNSKNTLYLQMNSLRAEDTAVYYCARVSSGHWDFDYWGQGTLVTVSS
VL: DIQLTQSPSSLSASVGDRVTITCRASQSISSYLNWYQQKPGKAPKLLIYAASNLQSGVPSRFSGSGSGTDFTLTISSLQPEDFATYYCQQTYTVPLTFGGGTKVEIK
B2: Ab19: monoclonal antibody; VH SEQ ID NO: 250, VL SEQ ID NO: 241 (antibody, V domains shown)
VH: B1 VH with D31S, Y32F, V35T, F56A, T57A, Y60F, Y108E
VL: B1 VL
B3: Ab31: monoclonal antibody; VH SEQ ID NO: 139, VL SEQ ID NO: 15 (antibody, V domains shown)
VH: EVQLVESGGGLVQPGGSLRLSCAASGFTFSSFSMDWVRQAPGKGLEWVSYISPDASTIYYADSVKGRFTISRDNAKNTLYLQMNSLRAEDTAVYYCARAVLDYGDMLDPWGQGTLVTVSS
VL: DIQMTQSPSSLSASVGDRVTITCQASQDITNYLNWYQQKPGKAPKLLIYDASNLETGVPSRFSGSGSGTDFTFTISSLQPEDIATYYCQQADNHPPWTFGGGTKVEIK
B4: Ab32: monoclonal antibody; VH SEQ ID NO: 140, VL SEQ ID NO: 15 (antibody, V domains shown)
VH: B3 VH with D35N, D54S, S56D, A99G, L101W, Y103M
VL: B3 VL
B5: Ab33: monoclonal antibody; VH SEQ ID NO: 141, VL SEQ ID NO: 15 (antibody, V domains shown)
VH: B3 VH with D35N, D54S, S56D, R98H, A99G
VL: B3 VL

T4 sequence (P01137 30-390): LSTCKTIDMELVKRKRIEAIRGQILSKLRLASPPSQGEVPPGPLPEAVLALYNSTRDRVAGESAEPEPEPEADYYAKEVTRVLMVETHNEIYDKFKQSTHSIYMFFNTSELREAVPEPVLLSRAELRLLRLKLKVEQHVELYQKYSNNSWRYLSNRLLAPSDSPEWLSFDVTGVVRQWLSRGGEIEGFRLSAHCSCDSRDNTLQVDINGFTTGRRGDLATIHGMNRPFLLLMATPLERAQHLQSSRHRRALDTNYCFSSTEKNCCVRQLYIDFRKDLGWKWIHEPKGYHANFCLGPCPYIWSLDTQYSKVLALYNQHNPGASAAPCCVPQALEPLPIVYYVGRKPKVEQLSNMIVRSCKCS
T4 sequence (Q14766 873-1507 partner): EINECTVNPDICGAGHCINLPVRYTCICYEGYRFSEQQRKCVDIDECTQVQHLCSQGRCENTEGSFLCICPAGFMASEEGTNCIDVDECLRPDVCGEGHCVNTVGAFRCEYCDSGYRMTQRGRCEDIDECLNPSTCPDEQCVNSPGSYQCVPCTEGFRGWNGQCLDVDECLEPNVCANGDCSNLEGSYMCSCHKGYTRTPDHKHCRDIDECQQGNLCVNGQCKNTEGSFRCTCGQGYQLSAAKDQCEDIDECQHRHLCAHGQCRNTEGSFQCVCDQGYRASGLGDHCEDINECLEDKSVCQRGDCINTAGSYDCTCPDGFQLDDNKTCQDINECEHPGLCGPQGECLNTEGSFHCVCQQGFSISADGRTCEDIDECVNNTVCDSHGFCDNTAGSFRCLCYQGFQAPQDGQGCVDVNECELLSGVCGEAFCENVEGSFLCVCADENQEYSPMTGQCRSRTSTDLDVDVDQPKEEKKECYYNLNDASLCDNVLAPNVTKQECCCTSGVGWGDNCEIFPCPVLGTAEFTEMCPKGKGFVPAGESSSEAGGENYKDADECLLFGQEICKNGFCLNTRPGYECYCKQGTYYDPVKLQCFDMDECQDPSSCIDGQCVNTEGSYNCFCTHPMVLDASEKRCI
T3 sequence (P01137 30-390): as the sequence (P01137 30-390) above
T3 sequence (Q9NS15 866-1039 partner limits assumed): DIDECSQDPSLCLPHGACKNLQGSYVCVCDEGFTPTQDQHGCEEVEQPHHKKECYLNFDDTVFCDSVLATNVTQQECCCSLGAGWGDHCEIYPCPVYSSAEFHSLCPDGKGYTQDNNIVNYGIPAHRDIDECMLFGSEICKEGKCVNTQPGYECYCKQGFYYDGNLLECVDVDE
T2 sequence (P01137 30-390): as the sequence (P01137 30-390) above
T2 sequence (Q86YC3 19-650 partner limits assumed): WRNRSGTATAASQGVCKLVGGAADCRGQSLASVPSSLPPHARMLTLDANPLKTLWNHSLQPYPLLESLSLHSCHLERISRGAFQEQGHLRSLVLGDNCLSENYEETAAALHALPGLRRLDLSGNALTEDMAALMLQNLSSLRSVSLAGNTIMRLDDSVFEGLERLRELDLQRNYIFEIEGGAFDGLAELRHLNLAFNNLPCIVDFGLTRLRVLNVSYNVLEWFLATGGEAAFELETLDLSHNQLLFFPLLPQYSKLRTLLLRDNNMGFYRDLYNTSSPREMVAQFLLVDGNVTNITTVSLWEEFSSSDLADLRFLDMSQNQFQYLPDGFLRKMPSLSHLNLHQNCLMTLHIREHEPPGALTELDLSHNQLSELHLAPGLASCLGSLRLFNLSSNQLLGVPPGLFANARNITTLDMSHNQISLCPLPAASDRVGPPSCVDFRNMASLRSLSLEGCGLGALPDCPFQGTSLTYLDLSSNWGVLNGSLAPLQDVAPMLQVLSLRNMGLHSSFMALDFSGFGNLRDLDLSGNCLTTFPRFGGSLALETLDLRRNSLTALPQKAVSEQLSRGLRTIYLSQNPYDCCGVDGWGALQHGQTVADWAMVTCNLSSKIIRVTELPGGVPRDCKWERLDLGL

The target of one experiment is T1, recombinant human GARP-proTGFβ1 complex (Homo sapiens, UniProt P01137).
T1 construct: made in house
T1 sequence (P01137 30-390): as the sequence (P01137 30-390) above
T1 sequence (Q14392 20-627 partner limits assumed): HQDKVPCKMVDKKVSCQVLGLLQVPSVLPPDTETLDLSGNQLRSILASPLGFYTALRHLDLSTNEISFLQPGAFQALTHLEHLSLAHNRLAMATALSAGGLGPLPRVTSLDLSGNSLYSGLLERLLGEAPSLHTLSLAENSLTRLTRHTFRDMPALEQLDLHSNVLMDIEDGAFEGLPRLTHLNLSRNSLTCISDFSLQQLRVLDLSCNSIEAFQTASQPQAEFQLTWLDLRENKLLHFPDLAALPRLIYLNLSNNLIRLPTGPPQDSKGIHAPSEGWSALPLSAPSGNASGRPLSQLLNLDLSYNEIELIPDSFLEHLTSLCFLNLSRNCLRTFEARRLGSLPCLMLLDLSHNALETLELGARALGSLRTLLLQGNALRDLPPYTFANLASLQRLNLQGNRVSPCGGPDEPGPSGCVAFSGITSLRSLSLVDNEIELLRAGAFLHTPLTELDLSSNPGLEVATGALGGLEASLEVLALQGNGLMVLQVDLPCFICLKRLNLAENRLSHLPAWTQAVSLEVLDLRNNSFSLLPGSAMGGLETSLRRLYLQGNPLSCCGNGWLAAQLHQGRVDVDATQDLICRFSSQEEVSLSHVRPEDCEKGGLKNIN
In words: Octet (Biolayer Interferometry) in vitro kinetic binding. The note with it: in M. The method, boiled down:
(§1)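 Antibody binding kinetics (KD) were determined by biolayer interferometry (Octet QKe) using streptavidin-coated biosensors. Biotinylated human presenting molecule–proTGFβ1 complexes were presented at […].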
In general terms: Biolayer interferometry detects binding as a change in optical thickness at a sensor tip.
With B1, the “(E) hGARP, Cell-associated proTGFb1 (KD)” value came to 7.01E−09.
Still for that read-out and setting: under B2 stands 1.12E−08; under B3, 5.81E−10.
Consider B4, for which the “(E) hGARP, Cell-associated proTGFb1 (KD)” value is recorded as 4.96E−10.
Same read-out and setting: the same measure for B5: 2.65E−10.

The next experiment has as its target T2, recombinant human LRRC33-proTGFβ1 complex (Homo sapiens, UniProt P01137).
T2 construct: made in house
The experiment is described as above. To be noted: in M. The method, boiled down:
as §1
On to B1, for which the “(F) hLRRC33, Cell-associated proTGFb1 (KD)” value (“(F) hLRRC33” below) is reported as 7.75E−10.
Still for that read-out and setting: under B2 stands 6.92E−10.
B3: the “(F) hLRRC33” value is reported as 4.10E−10.
On the same count and under the same terms, the same measure for B4: 6.98E−10.
Consider B5, for which the “(F) hLRRC33” value stood at 3.39E−10.

A further experiment concerns the target T3, recombinant human LTBP3-proTGFβ1 complex (Homo sapiens, UniProt P01137).
T3 construct: made in house; host or cells: Expi293F cells, transient co-transfection
Described as above. To be noted: in M. The method, boiled down:
as §1
In the case of B1, the “(C) hLTBP3, Matrix-associated proTGFb1 (KD)” value (“(C) hLTBP3” for short) came out at 1.83E−10.
With B2, the “(C) hLTBP3” value is listed as 1.56E−10.
For B3, the “(C) hLTBP3” value came to 1.81E−10.
Regarding B4, the “(C) hLTBP3” value was 2.15E−10.
Same read-out and setting: the same measure for B5: 1.11E−10.

Another experiment addresses T4, recombinant human LTBP1-proTGFβ1 complex (Homo sapiens, UniProt P01137).
T4 construct: made in house; host or cells: Expi293F cells, transient co-transfection
The description is as above. To be noted: in M. The method, boiled down:
as §1
Consider B1, for which the “(B) hLTBP1, Matrix-associated proTGFb1 (KD)” value (shortened to “(B) hLTBP1”) is 1.57E−10.
Consider B2, for which the “(B) hLTBP1” value came out at 1.89E−10.
In the case of B3, the “(B) hLTBP1” value is on record as 2.36E−10.
Still for that read-out and setting: under B4 stands 2.69E−10.
On to B5, for which the “(B) hLTBP1” value was 1.79E−10.

The next experiment relates to hLTBP1-/hLTBP3-proTGFβ1 vs hGARP-/hLRRC33-proTGFβ1 complexes. Briefly: Solution equilibrium titration: relative affinity (bias) LTBP complexes vs cell-associated complexes. The format is binding, human. The note with it: MSD-SET, average KD of (B) and (C); read-out: (D) ECM AVRG. An excerpt: Context-biased: As used herein, “context-biased antibodies” refer to a type of conformational antibodies that binds an antigen with differential affinities when the antigen is associated with (i.e., bound to or attached to) an interacting protein or a fragment thereof. Thus, a context-biased antibody that specifically binds an epitope within proTGFβ1 may bind LTBP1-proTGFβ1, LTBP3-proTGFβ1, GARP-proTGFβ1 and LRRC33-proTGFβ1 with different affinities. […] Relative affinities of [matrix-associated complexes]: [cell-associated complexes] may be obtained by taking average KD values of the former, taking average KD values of the latter, and calculating the ratio of the two, as exemplified herein.
In a yet further aspect, the present disclosure provides context-biased TGFβ1 inhibitors. The context-biased antibodies include LTBP-biased antibodies with higher affinities for ECM-associated LLCs than for cell-associated LLCs wherein the affinities are measured at equilibrium.
For the molecule B1, the Kd was determined as 0.72 nM.
In the case of B2, the Kd came to 2.83 nM.
B3: the Kd is 0.017 nM.
For the molecule B4, the Kd is 0.032 nM.
For B5, the Kd came to 0.009 nM.

Still in this experiment, the particulars now being: MSD-SET, average KD of (E) and (F); read-out: (G) Cell AVRG.
Turning to B1, the Kd is 2.45 nM.
As for B2, the Kd turned out to be 4.75 nM.
With B3, the Kd worked out at 0.058 nM.
The same measure, in the same setting: under B4 stands 0.051 nM.
In the case of B5, the Kd is 0.027 nM.

The same experiment, now with this note: MSD-SET, ratio of average KD cell-associated / matrix-associated.
In the case of B1, the “(H) G/D (fold bias)” value stood at 3.40 fold.
With B2, the “(H) G/D (fold bias)” value was 1.68 fold.
On to B3, for which the “(H) G/D (fold bias)” value worked out at 3.41 fold.
Take B4: the “(H) G/D (fold bias)” value worked out at 1.60 fold.
For B5, the “(H) G/D (fold bias)” value is 3.00 fold.

The values above are taken from US11130803B2, “Isoform-selective TGFβ1 inhibitors and use thereof” (Scholar Rock, Inc., priority 2018, dated 2021).
